Bridges are numbered along the chain shown (N, C = ends). Where no end group is shown, it is not given here. Side-chain parts run from the residue outwards. [ ]: non-standard residue; d: D form. tBuAla = CC(C)(C)C[C@H](N)C(=O)O; Tle = CC(C)(C)[C@H](N)C(=O)O; linker = not defined here; Nle = CCCC[C@H](N)C(=O)O; siRNA = not defined here
T1: rat SORT1 (76-752)-His (rat, UniProt O54861 76-752)
T1 construct: range 76-752; Amine-coupled to CM5 chip for SPR
T1 sequence (looked up): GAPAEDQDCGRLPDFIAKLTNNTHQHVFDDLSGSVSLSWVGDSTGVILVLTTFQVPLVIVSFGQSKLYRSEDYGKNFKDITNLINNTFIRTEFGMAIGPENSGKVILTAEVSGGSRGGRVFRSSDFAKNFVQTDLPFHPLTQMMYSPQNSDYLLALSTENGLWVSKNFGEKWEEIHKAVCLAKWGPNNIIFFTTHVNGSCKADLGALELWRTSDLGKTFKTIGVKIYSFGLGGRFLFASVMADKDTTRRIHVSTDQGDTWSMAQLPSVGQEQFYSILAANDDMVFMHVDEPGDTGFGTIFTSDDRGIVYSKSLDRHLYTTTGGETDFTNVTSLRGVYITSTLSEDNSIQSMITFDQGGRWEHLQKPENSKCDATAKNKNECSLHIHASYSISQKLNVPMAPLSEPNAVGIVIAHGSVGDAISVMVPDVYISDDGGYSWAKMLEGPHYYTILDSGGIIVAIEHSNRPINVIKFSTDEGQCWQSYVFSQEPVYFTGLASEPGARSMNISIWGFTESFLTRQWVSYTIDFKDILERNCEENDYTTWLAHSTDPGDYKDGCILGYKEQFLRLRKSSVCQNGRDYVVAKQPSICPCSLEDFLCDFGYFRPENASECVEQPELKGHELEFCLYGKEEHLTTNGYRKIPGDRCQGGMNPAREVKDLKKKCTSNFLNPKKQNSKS

T2: cyno SORT1 (76-753)-His (cyno, UniProt A0A2K5VHG2 74-751)
T2 construct: range 76-753; Amine-coupled to CM5 chip for SPR
T2 sequence: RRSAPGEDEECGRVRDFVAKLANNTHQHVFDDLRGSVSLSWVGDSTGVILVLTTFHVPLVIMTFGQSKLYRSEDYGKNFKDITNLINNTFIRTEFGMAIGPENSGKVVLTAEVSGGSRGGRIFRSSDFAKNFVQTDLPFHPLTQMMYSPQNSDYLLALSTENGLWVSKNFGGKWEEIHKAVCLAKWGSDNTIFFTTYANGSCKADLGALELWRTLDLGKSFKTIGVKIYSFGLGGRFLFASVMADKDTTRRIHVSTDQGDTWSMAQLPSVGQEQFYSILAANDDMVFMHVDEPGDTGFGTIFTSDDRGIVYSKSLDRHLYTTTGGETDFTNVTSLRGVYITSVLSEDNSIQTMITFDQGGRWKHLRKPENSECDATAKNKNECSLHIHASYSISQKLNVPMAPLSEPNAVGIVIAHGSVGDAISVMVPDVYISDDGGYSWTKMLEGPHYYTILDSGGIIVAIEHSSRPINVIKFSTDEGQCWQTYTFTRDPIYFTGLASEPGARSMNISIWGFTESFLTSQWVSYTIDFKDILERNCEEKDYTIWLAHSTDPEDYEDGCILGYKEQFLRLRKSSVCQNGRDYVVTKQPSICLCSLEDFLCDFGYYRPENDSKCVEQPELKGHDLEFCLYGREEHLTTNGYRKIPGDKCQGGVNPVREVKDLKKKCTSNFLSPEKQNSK


Assays:
[1] = Maximum tolerated dose (MTD) study; format: in vivo, mouse
Method: BALB/c Nude mice, female, 6-8 weeks, weighing approximately 18-22 g were purchased from the Shanghai SLAC Laboratory Animal Co., LTD. MTD studies were conducted at WuXi AppTec and the care and use of animals was conducted in accordance with the regulations of the Association for Assessment and Accreditation of Laboratory Animal Care (AAALAC). Two MTD studies were performed (a) a low dose study with doses ranging from 0.1, 0.5, 1 and 3 mg/kg and (b) a high dose study with doses ranging from 3, 5, 10 mg/kg. Dosing volume was determined based on body weight (10 ul/g) and PDCs were dissolved in 25 mM Histidine 10% sucrose pH 7 and administered i.v. at a single dose at day 0. The treatment and observation were conducted up to 7 days and MTD was defined by ≥20% body weight loss. Body weights were measured daily, death and observed clinical signs were recorded.
Doses of 3, 5, and 10 mg/kg were administered. MTD was defined by ≥20% body weight loss and body weight measured daily.

rat SORT1 (76-752)-His = biological target: T1, rat SORT1 (76-752)-His; assay: SPR (Biacore 8K), SORT1 on CM5 chip, siRNA-peptide conjugate as analyte, 1:1 model
Method: (§1) SPR analysis was performed on Series S CM5 chips (Cytiva) using a Biacore 8K instrument (Cytiva). Sensorgrams were double-referenced by subtracting the response on both a reference flow cell and a blank sample. Human SORT1 (78-755)-His (Acrobiosystems), human SORT1 (78-755)-His(GenScript), mouse SORT1 (76-753)-His (R&D Systems), rat SORT1 (76-752)-His (GenScript), and cyno SORT1 (76-753)-His (GenScript) were diluted to 20-60 μg/mL in 10 mM sodium acetate pH 4.5 buffer and immobilized onto Series S CM5 chips using amine coupling at a flow rate of 10 μL/min for 45-100 s.
(§2) Ten start-up cycles and a blank cycle preceded each analysis run. The runs were performed by sequential injections of analyte (0-20 nM, 3-fold serial dilutions) with a 90 s association and 900 s dissociation at a flow rate of 30 μL/min, followed by two regeneration cycles with 2 M MgCl2 for 90 s at a flow rate of 10 μL/min. […] Five start-up cycles and a blank cycle preceded each analysis run. The runs were performed by sequential injections of analyte (0-25 nM) with a 150 seconds (s) association and 300 s dissociation at a flow rate of 30 μL/min, followed by a regeneration with 2 M MgCl₂ for 200 s at a flow rate of 10 μL/min. The kinetic rate constants (kₐ and kd) and the equilibrium binding constant (Kd) were calculated using a 1:1 kinetic binding model on the Biacore Insight Evaluation Software (Cytiva).
(§3) SPR analysis was performed on Series S CM5 chips (Cytiva) using a Biacore 8K instrument (Cytiva). Sensorgrams were double-referenced by subtracting the response on both a reference flow cell and a blank sample. The SPR analysis was conducted using four different SORT1 species: Human SORT1, Mouse SORT1, Rat SORT1, and Cyno SORT1. The samples were prepared according to the general procedure described above herein. The kinetic rate constants (ka and […]) and the equilibrium binding constant (Kd) were calculated using a 1:1 kinetic binding model on the Biacore Insight Evaluation Software (Cytiva).

cyno SORT1 (76-753)-His = biological target: T2, cyno SORT1 (76-753)-His; assay: as above
Method: as §1, §2, §3

Kd (rat SORT1 (76-752)-His) [nM] | Kd (cyno SORT1 (76-753)-His) [nM] | Molecule | sustained body weight loss ([1]; 5 mg/kg i.v. single dose, after 48 hrs, recovered at Day 7) [%] | toxicity ([1]; 10 mg/kg i.v. single dose) | body weight loss ([1]; 10 mg/kg i.v. single dose, after 48 hrs, BALB/c nude mice)
 |  | CC[C@H](C)[C@@H]([C@@H](CC(=O)N1CCC[C@H]1[C@H](OC)[C@@H](C)C(=O)N[C@H](C)[C@@H](O)c1ccccc1)OC)N(C)C(=O)[C@@H](NC(=O)[C@H](C(C)C)N(C)C(=O)OCc1ccc(NC(=O)[C@H](CCCNC(N)=O)NC(=O)[C@@H](NC(=O)CCCC(=O)NCCC(=O)N(C)CC(=O)N(C)CC(=O)N(C)CC(=O)N(C)CC(=O)N[C@@H](C)C(=O)N2CCC[C@H]2C(=O)N[C@@H](CCCNC(=N)N)C(=O)N[C@@H](Cc2c[nH]c3ccccc23)C(=O)N[C@@H](CC(=O)O)C(=O)N[C@@H](C)C(=O)N2CCC[C@H]2C(=O)N[C@@H](CC(C)C)C(=O)N[C@@H](CCCNC(=N)N)C(=O)N[C@@H](CC(=O)O)C(=O)N2CCC[C@H]2C(=O)N[C@@H](C)C(=O)N[C@@H](CC(C)C)C(=O)N[C@@H](CCCNC(=N)N)C(=O)N[C@@H](CCC(N)=O)C(=O)N[C@@H](CC(C)C)C(=O)N[C@@H](CC(C)C)C(=O)O)C(C)C)cc1)C(C)C [PRGN_WT_PDC] | ~15 | significant toxicity | greater than 20%
253 | 191 | RWCENK([linker-siRNA])R[Nle]FTCRQ[Tle][tBuAla] (disulfide 3-11 (inferred); not fully specified; printed as RWCENKR(Nle)FTCRQ(B13)(F02); reading uncertain, also called SORT1 peptide 3 siRNA conjugate) [SORT1 peptide 3 conjugate] |  |  | 

Source: US20260183411A1, “TARGETING SORTILIN” (priority 2024, published 2026)
